Tested on: facial nerve of Lewis rats
Assay: Histological processing of muscle, mystacial pad and buccal branch nerve
Type: in vivo
Conditions: mystacial pad, qualitative, 12-week endpoint
Method: This study was performed on the facial nerve of Lewis rats (Charles River, Wilmington, MA). Institutional approval was obtained before performing the study, and all animal procedures and housing were performed under the guidelines of the University of Pittsburgh Institutional Animal Care and Use Committee and in compliance with animal experimentation ethics policies.
Surgical procedures. Rats were placed under general anesthesia and maintained with Isoflurane. Preauricular/buccal incision lines were marked (FIG. 8A) and the nerve branches were exposed (FIG. 8B). A 5 mm segment of the marginal mandibular branch was removed to prevent cross-innervation contribution to the whisker movement^41. The buccal branch was then transected, and the resultant 2 mm defect was primarily repaired with 9-0 nylon sutures. […]
Histological processing. […] For the muscles, the mean muscle fiber pixel area was calculated from brightfield staining. […] Cross-sections of the main buccal branch distal to the injury site were analyzed for the number of axons. For S100, sections of the nerve distal and proximal to the transection and repair site were quantified separately and the ratio was used for comparison. All samples were blinded before quantification.

B1: GDNF: Recombinant human GDNF protein (R&D Systems), active agent of the microspheres (protein, UniProt P39905 78-211, looked up)
Glial cell line-derived …: SPDKQMAVLPRRERNRQAAAANPENSRGKGRRGQRGKNRGCVLTAIHLNVTDLGLGYETKEELIFRYCSGSCDAAETTYDKILKNLSRNRRLVSDKVGQACCRPIAFDDDLSFLDDNLVYHILRKHSAKRCGCI
modifications: in microspheres
With B1 the “local adverse effects on whisker pad and intrinsic vibrissae muscles (morphology)” value was “no local adverse effects”.
